The text below walks through data of US20260365759 (published 2026).

Changes are numbered by the printed parent chain.

Sequences and labels used below:
T1: Pepsinogen C (PGC) (human)
T1 chain: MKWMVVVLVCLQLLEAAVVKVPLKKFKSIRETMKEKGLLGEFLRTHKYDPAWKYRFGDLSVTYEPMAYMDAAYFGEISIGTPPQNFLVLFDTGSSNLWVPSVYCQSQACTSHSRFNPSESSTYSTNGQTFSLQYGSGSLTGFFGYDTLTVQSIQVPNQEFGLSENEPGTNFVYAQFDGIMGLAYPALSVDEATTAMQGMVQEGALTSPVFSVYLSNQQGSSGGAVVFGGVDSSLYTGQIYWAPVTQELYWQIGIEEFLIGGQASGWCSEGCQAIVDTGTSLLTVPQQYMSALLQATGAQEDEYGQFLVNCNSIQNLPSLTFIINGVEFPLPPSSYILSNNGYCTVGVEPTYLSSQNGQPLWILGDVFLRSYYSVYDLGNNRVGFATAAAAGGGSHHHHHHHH

B1: mAb 75 (antibody, V domains shown)
VH: QIQLVQSGPELKKPGETVKISCKASGYTFTNYGMNWVKQAPGKGLKWMGLINTYTRGPTFADDFKGRFAFSVETSANTAYLQINNLKTEDTATYFCARRGEYYGSSYVDYWGQGTTLTVSS
VL: DIQMTQITSSLSASLGDRVTISCRASQDIMHFLNWYQQKPDGTVKLLIYYTSRLHSGVPSRFSGSGSGTDYSLTITNLEPEDIATYYCQQHSNLPPTFGGGTKLEIK
B2: mAb 27 (antibody, V domains shown)
VH: QIQLVQSGPELKKPGETVKISCKASGYTFTNYGMNWVKQAPGKGLKWIGWINTYTGDPTYADDFKGRFAFSLETSASNGYLQIDNLKKEDTATYFCARRDIFAMDYWGQGTSVTVSS
VL: DIQMTQTTSSLSASLGDRVTITCRASQDIMKYLHWYQQKPDGTIKLLFYYTSRLHSGVPSRFSGSGSGTDYSLTISNLEQEDIATYFCQQDVKYPWTFGGGTKLEIK
B3: mAb 22 (antibody, V domains shown)
VH: B2 VH
VL: B2 VL with F48I
B4: mAb 123 (antibody, V domains shown)
VH: B2 VH with A24G, I48M, F68I, N78T, G79A, K88N
VL: B2 VL with I44V, F48I, V92I
B5: mAb 11 (antibody, V domains shown)
VH: QVQLQQPGTELVKPGASVKLSCKASGYTFTNYWMHWVKQRPGQGLEWIGNINPFNGATNYNDNFKTKATLTVDKSSSTAYMHLSSLTSEDSAVYYCARYDYSKYYAMDYWGQGTSVTVSS
VL: ENVLTQSPAIMAASPGDKVTMTCSASSSINSAHFHWYQQKPGTSPKLWIYRTSNLASGVPARFSGRGSGTSYSLTISSMEAADAATYYCQQWSDYPWTFGGGTKLEIR

What is called Kd is the free concentration of one partner at which half of the binding sites on the other are occupied at equilibrium, for simple one-to-one binding. Read a low Kd as tighter binding.

The assay has as its target T1, Pepsinogen C (PGC). Briefly: SPR, 37C, order of magnitude only. On the technique in general: SPR reads the build-up and loss of mass on a sensor chip optically.
Take B1: the Kd was approximately 0.1 nM. To B2 belongs approximately 0.1 nM; to B3, approximately 0.01 nM. The figure for B4 is approximately 0.1 nM; for B5 it is approximately 0.1 nM.
